Experimental data reported in FireProtDB (doi:10.1007/s00792-015-0748-z).

Conditions: Pyrococcus furiosus (strain ATCC 43587 / DSM 3638 / JCM 8422 / Vc1), 60 °C, GdnHCl, Fluorescence, Tris, NaCl, transition: 2, reversible: yes, whole UniProt chain shown

B1: L-asparaginase wild type, Q8TZE8 (protein)
chain: MKILLIGMGGTIASVKGENGYEASLSVKEVLDIAGIKDCEDCDFLDLKNVDSTLIQPEDWVDLAETLYKNVKKYDGIIVTHGTDTLAYTSSMISFMLRNPPIPIVFTGSMIPATEENSDAPLNLQTAIKFATSGIRGVYVAFNGKVMLGVRTSKVRTMSRDAFESINYPIIAELRGEDLVVNFIPKFNNGEVTLDLRHDPKVLVIKLIPGLSGDIFRAAVELGYRGIVIEGYGAGGIPYRGSDLLQTIEELSKEIPIVMTTQAMYDGVDLTRYKVGRLALRAGVIPAGDMTKEATVTKLMWILGHTNNVEEIKVLMRKNLVGELRD
For B1, the denaturant m value (pH 8) was 5.12 kcal/mol/M, the “denaturant midpoint (higher = more stable)” value (pH 8) was 3.04 M and the unfolding free energy (pH 8) was 15.7 kcal/mol. The denaturant m value (pH 9) was 0.9 kcal/mol/M, the “denaturant midpoint (higher = more stable)” value (pH 9) was 1.99 M and the unfolding free energy (pH 9) was 1.6 kcal/mol.
